Data on 41 variants can be found in the Human Domainome abundance scans (Beltran et al. 2025).

First the molecules themselves.
B1: Nuclear receptor subfamily 4 group A member 2, residues 260 to 336; numbered along this chain, P43354 (parent)
chain: EGLCAVCGDNAACQHYGVRTCEGCKGFFKRTVQKNAKYVCLANKNCPVDKRRRNRCQYCRFQKCLAVGMVKEVVRTD
B2: Ankyrin repeat and SAM domain-containing protein 6, residues 774 to 836; numbered along this chain, Q68DC2 (parent)
chain: DEDELTGILKKLSLEKYQPIFEEQEVDMEAFLTLTDGDLKELGIKTDGSRQQILAAISELNAG

± gives the uncertainty stated by the source.

Variants of B1 are the subject of one data set. Kind of data set: abundance fitness (aPCA) (normalised: wild type 0, dead -1); higher = more abundant; growth selection in yeast, the domain comes from the species named. The note with it: Homo sapiens.
Take EGVCAVCGDNAACQHYGVRTCEGCKGFFKRTVQKNAKYVCLANKNCPVDKRRRNRCQYCRFQKCLAVGMVKEVVRTD [L3V]: the abundance fitness was -0.054 ± 0.19.

EGFCAVCGDNAACQHYGVRTCEGCKGFFKRTVQKNAKYVCLANKNCPVDKRRRNRCQYCRFQKCLAVGMVKEVVRTD [L3F]: the abundance fitness is -0.026 ± 0.34. Same read-out and setting: the same measure for EGLCAVCLDNAACQHYGVRTCEGCKGFFKRTVQKNAKYVCLANKNCPVDKRRRNRCQYCRFQKCLAVGMVKEVVRTD [G8L]: 0.457 ± 0.39; for EGLCAVCMDNAACQHYGVRTCEGCKGFFKRTVQKNAKYVCLANKNCPVDKRRRNRCQYCRFQKCLAVGMVKEVVRTD [G8M]: -0.019 ± 0.21; for EGLCAVCDDNAACQHYGVRTCEGCKGFFKRTVQKNAKYVCLANKNCPVDKRRRNRCQYCRFQKCLAVGMVKEVVRTD [G8D]: -0.459 ± 0.24. Still for that read-out and setting: the figure for EGLCAVCGGNAACQHYGVRTCEGCKGFFKRTVQKNAKYVCLANKNCPVDKRRRNRCQYCRFQKCLAVGMVKEVVRTD [D9G] is 0.05 ± 0.2; for EGLCAVCGWNAACQHYGVRTCEGCKGFFKRTVQKNAKYVCLANKNCPVDKRRRNRCQYCRFQKCLAVGMVKEVVRTD [D9W] it is -0.058 ± 0.45; for EGLCRVCGDNAACQHYGVRTCEGCKGFFKRTVQKNAKYVCLANKNCPVDKRRRNRCQYCRFQKCLAVGMVKEVVRTD [A5R] it is -0.026 ± 0.25. Same read-out and setting: the same measure for EGLCLVCGDNAACQHYGVRTCEGCKGFFKRTVQKNAKYVCLANKNCPVDKRRRNRCQYCRFQKCLAVGMVKEVVRTD [A5L]: 0.219 ± 0.22. As for EVLCAVCGDNAACQHYGVRTCEGCKGFFKRTVQKNAKYVCLANKNCPVDKRRRNRCQYCRFQKCLAVGMVKEVVRTD [G2V], the abundance fitness is -0.191 ± 0.26. For the variant ESLCAVCGDNAACQHYGVRTCEGCKGFFKRTVQKNAKYVCLANKNCPVDKRRRNRCQYCRFQKCLAVGMVKEVVRTD [G2S], the abundance fitness is -0.075 ± 0.28. Still for that read-out and setting: the same measure for EGLCAVCGDNAAGQHYGVRTCEGCKGFFKRTVQKNAKYVCLANKNCPVDKRRRNRCQYCRFQKCLAVGMVKEVVRTD [C13G]: 0.057 ± 0.054; for EGLCAVCGDNAADQHYGVRTCEGCKGFFKRTVQKNAKYVCLANKNCPVDKRRRNRCQYCRFQKCLAVGMVKEVVRTD [C13D]: -0.022 ± 0.22; for EGLCAVCGDNAAAQHYGVRTCEGCKGFFKRTVQKNAKYVCLANKNCPVDKRRRNRCQYCRFQKCLAVGMVKEVVRTD [C13A]: 0.1 ± 0.088. On the same count and under the same terms, the figure for EGLCAVCGDNAAEQHYGVRTCEGCKGFFKRTVQKNAKYVCLANKNCPVDKRRRNRCQYCRFQKCLAVGMVKEVVRTD [C13E] is 0.03 ± 0.085; for EGLCAVCGDNAAFQHYGVRTCEGCKGFFKRTVQKNAKYVCLANKNCPVDKRRRNRCQYCRFQKCLAVGMVKEVVRTD [C13F] it is 0.116 ± 0.18; for EGLRAVCGDNAACQHYGVRTCEGCKGFFKRTVQKNAKYVCLANKNCPVDKRRRNRCQYCRFQKCLAVGMVKEVVRTD [C4R] it is -0.47 ± 0.35.

A further data set covers variants of B2. The description is as above. The note with it: Homo sapiens.
Turning to DEDELTGILKKLSLEKYQPIFEEQEVDMEAFLTLTDGDLKELGIKTDGSRQQILAAISYLNAG [E59Y], the abundance fitness worked out at 0.02 ± 0.11. Same read-out and setting: the figure for DEDELTGILKKLSLEKYQPIFEEQEVDMEAFLTLTDGDLKELGIKTDGSRQQILAAISELNLG [A62L] is -0.178 ± 0.029; for DEDELTGILKKLSLEKYQPIFEEQEVDMEAFLTLTDGDLKELGIKTDGSRQQILAAISELNVG [A62V] it is -0.117 ± 0.064. Still for that read-out and setting: the same measure for DEDELTGILKKLSLEKYQPIFEEQEVDMEAFLTLTDGDLKELGIKTDGSRQQILAAISELNWG [A62W]: -0.475 ± 0.086.

For the variant DEDELTGILKKLSLEKYQPIFEEQEVDMEAFLTLTDGDLKELGIKTDGSRQQILAAISELNNG [A62N], the abundance fitness was -0.07 ± 0.13. The same measure, in the same setting: the same measure for DEDELTGILKKLSLEKYQPIFEEQEVDMEAFLTLTDGDLKELGIKTDGSRQQILAAISELNIG [A62I]: -0.325 ± 0.064. On to DEDELTGILKKLSLEKYQPIFEEQEVDMEAFLTLTDGDLKELGIKTDGSRQQILAAISELNTG [A62T], for which the abundance fitness was -0.161 ± 0.057.

Turning to DEDELTGILKKLSLEKYQPIFEEQEVDMEAFLTLTDGDLKELGIKTDGSRQQILAAISELNEG [A62E], the abundance fitness came to 0.035 ± 0.051. On the same count and under the same terms, the same measure for DEDELTGILKKLSLEKYQPIFEEQEVDMEAFLTLTDGDLKELGIKTDGSRQQILAAISELNFG [A62F]: -0.345 ± 0.1. Same read-out and setting: the same measure for DEDELTGILKKLSLEKYQPIFEEQEVDMEAFLTLTDGDLKELGIKTDGSRQQILAAISELNKG [A62K]: -0.25 ± 0.11; for DEDELTGILKKLSLEKYQPIFEEQEVDMEAFLTLTDGDLKELGIKTDGSRQQILAAISELNRG [A62R]: -0.048 ± 0.043; for DEDELTGILKKLSLEKYQPIFEEQEVDMEAFLTLTDGDLKELGIKTDGSRQQILAAISELNQG [A62Q]: -0.121 ± 0.073.

For DEDELTGILKKLSLEKYQPIFEEQEVDMEAFLTLTDGDLKELGIKTDGSRQQILAAISELNCG [A62C], the abundance fitness is -0.017 ± 0.14. The same measure, in the same setting: the same measure for DEDELTGILKKLSLEKYQPIFEEQEVDMEAFLTLTDGDLKELGIKTDGSRQQILAAISELNDG [A62D]: 0.031 ± 0.071. DEDELTGILKKLSLEKYQPIFEEQEVDMEAFLTLTDGDLKELGIKTDGSRQQILAAISELNMG [A62M]: the abundance fitness is -0.2 ± 0.053. The same measure, in the same setting: the same measure for DEDELTGILKKLSLEKYQPIFEEQEVDMEAFLTLTDGDLKELGIKTDGSRQQILAAISELNPG [A62P]: -0.294 ± 0.075; for DEDELTGILKKLSLEKYQPIFEEQEVDMEAFLTLTDGDLKELGIKTDGSRQQILAAISELNGG [A62G]: 0.011 ± 0.041; for DEDELTGILKKLSLEKYQPIFEEQEVDMEAFLTLTDGDLKELGIKTDGSRQQILAAISELNSG [A62S]: -0.09 ± 0.051. Consider DEDELTGILKKLSLEKYQPIFEEQEVDMEAFLTLTDGDLKELGIKTDGSRQQILAAISELNHG [A62H], for which the abundance fitness is -0.074 ± 0.1. On the same count and under the same terms, the same measure for DEDELTGILKKLSLEKYQPIFEEQEVDMEAFLTLTDGDLKELGIKTDGSRQQILAAISEKNAG [L60K]: -0.508 ± 0.2; for DEDELTGILKKLSLEKYQPIFEEQEVDMEAFLTLTDGDLKELGIKTDGSRQQILAAISEYNAG [L60Y]: 0.048 ± 0.069. On the same count and under the same terms, the same measure for DEDELTGILKKLSLEKYQPIFEEQEVDMEAFLTLTDGDLKELGIKTDGSRQQILAAISEMNAG [L60M]: -0.054 ± 0.057.

For DEDELTGILKKLSLEKYQPIFEEQEVDMEAFLTLTDGDLKELGIKTDGSRQQILAAISEFNAG [L60F], the abundance fitness is -0.04 ± 0.062. Same read-out and setting: the same measure for DEDELTGILKKLSLEKYQPIFEEQEVDMEAFLTLTDGDLKELGIKTDGSRQQILAAISECNAG [L60C]: 0.033 ± 0.046.
